Source: the supplement of paper PMC12764529
± gives the half width of the 95% confidence interval.

How the values were obtained:
[1] = folding stability dG unfold from trypsin proteolysis; higher = more stable
In short: (§1)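 K50 was inferred by Bayesian fitting of sequencing counts obtained after protease digestion of designed mini-proteins. Unfolding free energy was derived by comparison with a sequence-predicted unfolded-state K50 and a shared folded-state K50, for each protease or both combined. The mini-proteins were under 80 residues, had no cysteine, were carried in a PA-tagged cDNA display construct, and were kept only if AlphaFold2 dimer inter-PAE exceeded 15.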

[2] = folding stability dG unfold from chymotrypsin proteolysis; higher = more stable
In short: as §1

[3] = folding stability dG unfold (combined trypsin and chymotrypsin); higher = more stable
In short: as §1

Row | Sequence | folding stability dG unfold [1] | folding stability dG unfold [2] | folding stability dG unfold [3]
1 | SAGGSAKPEKVIVLEIEIEMTPEEVKKLVEELLKEKFGVEIERIEVEVERLPDGTLKVRVRVVIRESAGGSA [r15_138_TrROS_Hall] | 3.31 ± 0.13 kcal/mol | 2.94 ± 0.12 kcal/mol | 3.17 ± 0.084 kcal/mol
2 | SAGGSAKPKIEIEVEKLEGVKEGDTIEVKIKFPNGFIIKIEAKVKRVDGKLVIEVTKVEVIPKEDLSAGGSA [r15_636_TrROS_Hall] | 2.7 ± 0.14 kcal/mol | 3.17 ± 0.2 kcal/mol | 3.16 ± 0.3 kcal/mol
3 | SAGGSAKPKITITVTYDKETNTVTVTITFPDGTTLTITVEAETEEEAKKAAKKLVEELLKKLEELESAGGSA [r15_477_TrROS_Hall] | 3.46 ± 0.27 kcal/mol | 3.4 ± 0.2 kcal/mol | 3.52 ± 0.23 kcal/mol
4 | SAGGSAKPVIVKIHFPNMKPEKILELAKEFGAVPLKMDPNKGVAIVLATEEKVEEIAAKGNFKIEASAGGSA [r15_731_TrMRF] | 0.736 ± 0.043 kcal/mol | 0.205 ± 0.39 kcal/mol | 0.515 ± 0.26 kcal/mol
5 | SAGGSAKPVMVRIKFPNMPPEKLQDAFQEYGMQPQNMDPNKGEMIIMIPWEAAEEIQDKNGFKIEISAGGSA [r15_731_TrROS] | -0.489 ± 0.16 kcal/mol | 0.8 ± 0.17 kcal/mol | 0.323 ± 0.24 kcal/mol
6 | SAGGSAKTITIYAPDLPLSEAIETLERLIKELGLTPVSVSVSYNPETGTVTITVTLPNGDTLTLHVSAGGSA [r15_958_TrMRF] | 2.18 ± 0.058 kcal/mol | 3.37 ± 0.046 kcal/mol | 2.99 ± 0.079 kcal/mol
7 | SAGGSAKTKVIEIEIDLSPEEIEELAKKLKEEGKVEEVKVEYDEKTGKVKVTVVVRDKNGEWKKLSSAGGSA [r15_177_TrROS_Hall] | 0.854 ± 0.066 kcal/mol | -0.0755 ± 0.48 kcal/mol | 0.556 ± 0.15 kcal/mol
8 | SAGGSAKTVSIWIPDDLPNMPIEELIKEVMKAFPPGDEIKDIDVEPWPNGGYMYTFTVNGKEVIIWSAGGSA [r15_451_TrROS] | 1.29 ± 0.043 kcal/mol | 1.93 ± 0.1 kcal/mol | 1.78 ± 0.17 kcal/mol
9 | SAGGSAKVIVEELPDGSIKIYFPETGAVIVLNPETGEAVVFVNPKKKNNEPPSLDDVLKAAKEALGSAGGSA [r15_735_TrMRF] | 0.413 ± 0.041 kcal/mol | 1.6 ± 0.019 kcal/mol | 1.28 ± 0.063 kcal/mol
10 | SAGGSAKVKIEFFQMPPGGNPRDMQKKAQDKGDIFIIVNKPGWMIVITADDPEDANTIAKEILEEFSAGGSA [r15_546_TrROS] | 0.735 ± 0.086 kcal/mol | 1.08 ± 0.11 kcal/mol | 0.954 ± 0.092 kcal/mol
11 | SAGGSAKVKIEVSIEVSEDGTITITVRITNENGEELTVTITIKLPPAPTVVYDSEEERKKALEALASAGGSA [r15_1018_TrROS_Hall] | 2.9 ± 0.14 kcal/mol | 2.2 ± 0.19 kcal/mol | 2.38 ± 0.26 kcal/mol
12 | SAGGSAKVKIYLIKLPPNGNPLEVIKKVKEKGGNAIIVSGPGLHAVIEADEPEEAAKKAKEILEKLSAGGSA [r15_546_TrMRF] | 0.361 ± 0.1 kcal/mol | 0.121 ± 0.2 kcal/mol | 0.292 ± 0.097 kcal/mol
13 | SAGGSAKVTIDTDNGIIKIEVGGKLIAEIEIPPGFPGGIYLEYEPNPPTLKFYIYTKNGPVYINDISAGGSA [r2_399_TrMRF] | 3.5 ± 0.43 kcal/mol | 3.96 ± 0.17 kcal/mol | 3.69 ± 0.32 kcal/mol
14 | SAGGSAKVVEIELVEVRRNANGERIVRVRIKLPNGEERTIEMSEEELKELLAKLPPNVEIVAIEEVSAGGSA [r15_339_TrROS_Hall] | 1.42 ± 0.077 kcal/mol | 1.76 ± 0.043 kcal/mol | 1.56 ± 0.15 kcal/mol
15 | SAGGSAKWLPAEELADELADTLMQRHGYEIKNVDVEVIDPDEGYIRVNIEYEHPGGRHKHDIIIPVSAGGSA [r15_32_TrROS] | 0.1 ± 0.18 kcal/mol | 0.851 ± 0.092 kcal/mol | 0.662 ± 0.17 kcal/mol
16 | SAGGSALENLEENEYIVKIEIEKKNKKKIEIVIAGKPEKIKEIEKELKKKGFKILKIEPKKVKDVLSAGGSA [r15_640_TrMRF] | 1.45 ± 0.054 kcal/mol | 1.59 ± 0.066 kcal/mol | 1.56 ± 0.1 kcal/mol
17 | SAGGSALKIMVEPDPEDGTVRVWFMIPNPENGEEFMVQAEIDPNGKIEDVEVYPNGNMIWITFKLPSAGGSA [r15_557_TrROS] | 2.4 ± 0.061 kcal/mol | 3.36 ± 0.037 kcal/mol | 2.96 ± 0.087 kcal/mol
18 | SAGGSALKIPSGKKYTVVVKDPNKPVEYVADVIERHPDSILIEVKDPNSSKTKKITVPTNVITIDLSAGGSA [r15_381_JUSTAS] | -0.095 ± 0.15 kcal/mol | 0.684 ± 0.16 kcal/mol | 0.464 ± 0.19 kcal/mol
19 | SAGGSALPEDATVKVEVTVVTLVYDPETGGFYLKVAKVEKEIRFDPKNGKLEVKVKKVEVKVFKLGSAGGSA [r15_517_TrMRF] | 2.96 ± 0.21 kcal/mol | 4.41 ± 0.17 kcal/mol | 4.19 ± 0.33 kcal/mol
20 | SAGGSALPPGQEVEITIMIMVMIYNPENGRMWMVMASVEIEIRVDPKNGKLEIKIKKISISIFPMDSAGGSA [r15_517_TrROS] | 4.23 ± 0.72 kcal/mol | 5.8 ± 0.52 kcal/mol | > 6 kcal/mol
21 | SAGGSALPPHAVRVLVVTATDTDPGAAAARIAEEFRRKYPNTRVLTRPFDVPPGRPAVVAVVYVDESAGGSA [r15_916_TrMRF] | 1.15 ± 0.12 kcal/mol | 2.54 ± 0.11 kcal/mol | 2.08 ± 0.2 kcal/mol
